In the DeepSol protein solubility set:

Assay: soluble on expression in E. coli; label from the status in PepcDB or PDB records

Row | Sequence | soluble on expression in E. coli
1 | MHKVSATLLIIDDDEVVRESLAAYLEDSNFKVLQALNGLQGLQIFESEQPDLVICDLRMPQIDGLELIRRIRQTASETPIIVLSGAGVMSDAVEALRLGAADYLIKPLEDLAVLEHSVRRALDRAYLRVENQRYRDKLEAANRELQASLNLLQEDQNAGRQVQMNMLPVTPWSIEGLEFSHRIIPSLYLSGDFVDYFRVDERRVAFYLADVSGHGASSAFVTVLLKFMTTRLLYESRRNGTLPEFKPSEVLAHINRGLINTKLGKHVTMLGGVIDLEKNSLTYSIGGHLPLPVLFVEGQAGYLEGRGLPVGLFDDATYDDRVMELPPSFSLSLFSDGILDVLPGATLKEKEASLPEQVAAAGGTLDGLRQVFGLANLAEMPDDIALLVLSRNLA | soluble
2 | EVVVTGMQKMDKRLFTGATQQLTADNVKLDGLPDISRGLEGRAAGVSVQNVSGTFGTAPKIRVRGATSIYGSSKPLWVVDGVIMEDAIDVGPDDLSSGDAETLISSAIAGLNSDDIESFQILKDGSATSIYGARAMAGVIVVTTKKGK | not soluble
3 | DESSKNGLMDMVSQGLNAESSPLTELLTSQLPVSTEQAAGGSSALIALAQSQLSQQNSTELQSLIPGLSNLKGAQSLLGNIESLSAVQSAFN | not soluble
4 | GWSFEEQFKQVRQLYEINDDPKRKEFLDDLFSFMQKRGTPINRLPIMAKSVLDLYELYNLVIARGGLVDVINKKLWQEIIKGLHLPSSITSAAFTLRTQYMKYLYPYECEKKNLSTPAELQAAIDGNR | soluble
5 | MSLLKQKILNRESGIITYGITPPKKNNTEEKIKEISQKHIERISGLDIDGLVIYDLQDEKERVSEERPFPFIETIDPQIYSENYLKDLKIPKIIYRCVGKYTPDEFRRLTRPVSGQDAFSVFVGAASRNQSVLLKLSDAYKIRQDVNPDLLLGGVAIPERHMKNTDEHLRIIDKINKGCKYFITQAVYNVEAAKDFLSDYYYYSKNNNLKMVPIIFTLTPCGSTKTLEFMKWLGISIPRWLENDLMNCEDILNKSVSLSKSIFNELMEFCLEKGIPIGCNIESVSVRKVEIEASIALAKDIKYIMKGEGHHHHHH | soluble
6 | MKTTLLSAVLASTLLVCAPATVLAQPATSSAPAAQGAATKTVIDSSTRILSTLDQRRAEFRGNPAALRQYINGELNKAFDRDYSARLVLGVHGRGASDADVKLFADALAENLMQRYGTALLNFEGKPTFRAKSESALPGNRGVKVSTDLLRAGNDPTPVDYLMRNSGGQWKIFDVMIEGISYVQTFKTQFDGPLREKGIAKVAADLRSGNLQVGATPANGQLEHHHHHH | soluble
7 | MPTLSSNLKHLRLLLGRSQGEFAEQLGIAQSTLSSVERENRPPSTKLINTARFQTGVSAEYFEASIHFYAAPDLLFRSAREGRANADKIAAAFSIAEHYLRERYPDVTSDLPTIPIADLEGELSLRMLEEFASQTRDHFGIDQDSMIPNLTTVLNNHGILVTSLPDYVVEGTNFDGVSTPTDSTLRIIALNQQRSGDRYRFSLAHELAHLILHANTLRSDKSQMEKEANIFAASFLMPRALLTPVITPELTLKDYAELKAQWGYSIQAIVRRAHELELIDYKRYRSLRMQIAGRGWNINEPVDVLLENVYIDPIDLLSNNIKKHQSTNEGLATVTSLHKQ | not soluble
8 | MKIQELKLFNGLTEDELQRSLVCSQSNIVEYEKDDYIFSQGERPRWIYMILSGEVLLEQINMAGRQTYAEYLGERQQFGVVDLFLKRKQYSYSARARSHVKLLKISSHFFYGTCENNCMHHSKILFNMMGVFAEEAEKKSKKIQLLTCGSLRQRIALYLLQNSGENKKVELMMNREELAASLNAARPSLSRELSQMQDEGIIKMEGRKSIKILDYSRLQEDLADVSD | not soluble
9 | MKRSKRFAVLAQRPVNQDGLIGEWPEEGLIAMDSPFDPVSSVKVDNGLIVELDGKRRDQFDMIDRFIADYAINVERTEQAMRLEAVEIARMLVDIHVSREEIIAITTAITPAKAVEVMAQMNVVEMMMALQKMRARRTPSNQCHVTNLKDNPVQIAADAAEAGIRGFSEQETTVGIARYAPFNALALLVGSQCGRPGVLTQCSVEEATELELGMRGLTSYAETVSVYGTEAVFTDGDDTPWSKAFLASAYASRGLKMRYTSGTGSEALMGYSESKSMLYLESRCIFITKGAGVQGLQNGAVSCIGMTGAVPSGIRAVLAENLIASMLDLEVASANDQTFSHSDIRRTARTLMQMLPGTDFIFSGYSAVPNYDNMFAGSNFDAEDFDDYNILQRDLMVDGGLRPVTEAETIAIRQKAARAIQAVFRELGLPPIADEEVEAATYAHGSNEMPPRNVVEDLSAVEEMMKRNITGLDIVGALSRSGFEDIASNILNMLRQRVTGDYLQTSAILDRQFEVVSAVNDINDYQGPGTGYRISAERWAEIKNIPGVVQPDTIE | soluble
10 | TMSHGFGVMAGINLTKNIGVQAEVNYYQINQKYADGNLNRDLTINYFNIPVLLSLNTNKAAPVNLNLVAGPQFGINAGSKFETSGNGNTDSTTAVVALRKGDVGVAYGAGLEFALNKSHSVRLDLGFRGFYGLVNMDSSTNGQGTYNVIVSASRKTYGGYAGITWMF | not soluble
11 | MAHHHHHHMGKAAKGRTAMPGKLDTTEADKRTPKSIIIYRGEVGIHVRSLMHEWRNVFLPWSSKKLHGKNKSLKDFLAVAATFSASHLQLFTAPSQGTSLRIMRFFNGPTLSFRVLSFTLHKEIVAKQRRPVAVDRAAWEVAPIVVLNNFTHPDLAHRAEVPLLTATFKALFPSLNVQTIQSSEIQRICLFHYDHVEHVVEVRHYYINARTVGVTKTVKKLLENRRPTKLGTLESIDEVLDREDAWSDTDG | not soluble
12 | MRGSHHHHHHTDPALRANEFSILCRVLGSLYYRQPQDPLLVPLFTLIREGKLAANWPLEQDELLTRLQKSCDMTQVSADYNALFIGDECAVPPYRSAWVEGATEAEVRAFLSERGMPLADTPADHIGTLLLAASWLEDQSTEDESEALETLFSEYLLPWCGAFLGKVEAHATTPFWRTMAPLTRDAISAMWDELEEDSEEGLCGR | soluble
13 | HLQGLSAAVLDLTGLAQKGGTVVSHIRLAPSGTANGPVRLDWQQADAAILCDPVAAVAPDSLGALRRDHTRTTVNTYVAPVSDFTRNPDAPLRADALLAKIRHAAGEHVAALDAHAAAQALFGDSILSNMFMLGHAWQRGDVPLALAALARAIELNGVAVAANRAAFDAGRLAAHE | not soluble
14 | MVTVRYYATLRPITKKKEETFNGISKISELLERLKVEYGSEFTKQMYDGNNLFKNVIILVNGNNITSMKGLDTEIKDDDKIDLFPPVAGG | soluble
15 | MGSDKIHHHHHHDEEPSDKGSTSPQEPVYTTFTDAGEVVVPGVLPANFTPRSVRVKGDTLFVANTNAADRSVLLLNLTTGELIGRIDSWVRKGVKETFNAEIGDMAVSDRYIFVGMYNSRINIFDRRTLQFVNAIGRSDGKWGDDIYSMTHCYGLRECGERLMVRDKNTIRGYWIYEAVTEPAFRVPWIGKVKVPEGVGYDYQARIHGMAEYDGRMYLTDWYNKSVQVFTPSKMEIVFGEETHITSDAVFKYDDIQPLGLLAYGGELLMSVQKSGKIQRYDPETGDLLGVLAEFPGKEIGRMEIARGMLYYIDLKAGKLMKAKGE | not soluble
16 | MGSSHHHHHHSSGLVPRGSHMKARELDVPGAWEITPTIHVDSRGLFFEWLTDHGFRAFAGHSLDVRQVNCSVSSAGVLRGLHFAQLPPSQAKYVTCVSGSVFDVVVDIREGSPTFGRWDSVLLDDQDRRTIYVSEGLAHGFLALQDNSTVMYLCSAEYNPQREHTICATDPTLAVDWPLVDGAAPSLSDRDAAAPSFEDVRASGLLPRWEQTQRFIGEMRGTGSV | soluble
17 | MREPYYKKLLGIKNYLIRKNYPEELEILIPKYVEENKELRGCIDCLSCLSVCPAREVSDYPGPTFMRQLARFAFDKRDEDGREITAYFENIYNCTTCAKCVEVCPKEIDIVHRAIEKLRALAFSKGYYIENHLEHHHHHH | not soluble
18 | MRPVFPLILSAVLFLSCFFGARQTEASASKRAIDANQIVNRMSLDEKLGQMLMPDFRNWQKEGESSPQALTKMNDEVASLVKKYQFGGIILFAENVKTTKQTVQLTDDYQKASPKIPLMLSIDQEGGIVTRLGEGTNFPGNMALGAARSRINAYQTGSIIGKELSALGINTDFSPVVDINNNPDNPVIGVRSFSSNRELTSRLGLYTMKGLQRQDIASALKHFPGHGDTDVDSHYGLPLVSHGQERLREVELYPFQKAIDAGADMVMTAHVQFPAFDDTTYKSKLDGSDILVPATLSKKVMTGLLRQEMGFNGVIVTDALNMKAIADHFGQEEAVVMAVKAGVDIALMPASVTSLKEEQKFARVIQALKEAVKNGDIPEQQINNSVERIISLKIKRGMYPARNSDSTKEKIAKAKKIVGSKQHLKAEKKLAEKAVTVLKNEQHTLPFKPKKGSRILIVAPYEEQTASIEQTIHDLIKRKKIKPVSLSKMNFASQVFKTEHEKQVKEADYIITGSYVVKNDPVVNDGVIDDTISDSSKWATVFPRAVMKAALQHNKPFVLMSLRNPYDAANFEEAKALIAVYGFKGYANGRYLQPNIPAGVMAIFGQAKPKGTLPVDIPSVTKPGNTLYPLGYGLNIKTGRPL | soluble
19 | FKAHCRRSVEGDTMLSLKAVSPTRLLKNKFYQDVFAAEQRGASVEELRELLGRGRAKQGIFEGDLHEGELEIGQAVSQISHAETVAEIMVDLVDGYKRSLAGMPTEI | not soluble
20 | PREPVVNDEMCDVCEVWTAESLFPCRVCTRVFHDGCLRRMGYIQGDSAAEVTEMAHTETGWSCHYCDNINLLLTEE | soluble
21 | MGSDKIHHHHHHMGLEDLYLSWPKWFSEALARYSSLEGALEGVEEIYYCGMGGSGAAGDYIEALLSIYAPQGPEFRVVKDFRPPRPPRHRGYGLVLASYSGNTLETVECGSLLSPAAGRVVAVTSGGRLLEMAKERGWLVARLPGGILPRVSFPWMLAASTAMLSGALGVDLEALKRLAGGLDTQGLKGEAERLAGFISRYRIASLVTCGPGIPLAVRLKNELAENAKMPSRLEIYPESSHNDIVALEAAEGLYGAVFIWIEHEGSLCPAVLDVVEGIYREYGVDTISIESSARGGPNATVAEYLSRTLVFGLASVRLALMRGFNPEETPPIDKYKRRLGEALRSQA | not soluble
22 | MDEEKDLAQRKKEAAERAKQLARERLAARQADEQARSAAETGSLKTPPNSNGSQTETTKGEATEPASANDLALAKKRAAEEARAKAAQLRRQGEAAASGAATGDDLEAAKRKAAEEARAKAAQLRRQREAAAPGAATGDDLEAAKRKAAEEARARAAELRRQREAAESGAEDDLELAKKKAVAAAKARAAALAKQKAAEASGDDDELAKQKAAAAAKAKAAAAAKARAAALAKQQGGAGDEGAKQKAAAAARAKAEETDGGTGRSAAPSPNDPLLEKYVRIIHEHLGSDVLEDAYINRLAKDVPTLVVKKEAYYKVAELLKGHEQLRFDYLSELHGTDFQTHMEVYVHLYSYPNRHPVALKVKIERDNPEVDSLVPLWPGANWPECEAYDLLGIRFRGHPNLIRIFLGEQWVGHPLRKDYEPYDAEV | not soluble
23 | MSPILAKNIVYVAQIKGQITSYTYDQFDRYITIAEQDNAEAIIIELDTPGGRADAMMNIVQRIQQSKIPVIIYVYPPGASAASAGTYIALGSHLIAMAPGTSIGACRPILGYSQNGSIIEAPPKITNYFIAYIKSLAQESGRNATIAEEFITKDLSLTPEEALKYGVIEVVARDINELLKKSNGMKTKIPVNGRYVTLNFTNVEVRYLAPSFKDKLISYITDLEHHHHHH | soluble
